# Measured values reported in the supplement of paper PMC10065799, “High-throughput profiling of sequence recognition by tyrosine kinases and SH2 domains using bacterial peptide display” (eLife, 2023).
# Target: MERTK (UniProt Q12866)
# Assay: phosphorylation enrichment, bacterial display (enrichment ratio); higher = better substrate or ligand; peptides without Tyr show the background
# 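Also: 11-residue human phosphosite peptides and single-mutation variants displayed on the E. coli surface, counted by deep sequencing, each peptide's frequency after selection divided by its frequency in the unselected input library; frequency after pTyr selection over input frequency; kinase dosed for 20-30% of maximal phosphorylation in three min.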
# MERTK, sequence (Q12866 whole entry, looked up): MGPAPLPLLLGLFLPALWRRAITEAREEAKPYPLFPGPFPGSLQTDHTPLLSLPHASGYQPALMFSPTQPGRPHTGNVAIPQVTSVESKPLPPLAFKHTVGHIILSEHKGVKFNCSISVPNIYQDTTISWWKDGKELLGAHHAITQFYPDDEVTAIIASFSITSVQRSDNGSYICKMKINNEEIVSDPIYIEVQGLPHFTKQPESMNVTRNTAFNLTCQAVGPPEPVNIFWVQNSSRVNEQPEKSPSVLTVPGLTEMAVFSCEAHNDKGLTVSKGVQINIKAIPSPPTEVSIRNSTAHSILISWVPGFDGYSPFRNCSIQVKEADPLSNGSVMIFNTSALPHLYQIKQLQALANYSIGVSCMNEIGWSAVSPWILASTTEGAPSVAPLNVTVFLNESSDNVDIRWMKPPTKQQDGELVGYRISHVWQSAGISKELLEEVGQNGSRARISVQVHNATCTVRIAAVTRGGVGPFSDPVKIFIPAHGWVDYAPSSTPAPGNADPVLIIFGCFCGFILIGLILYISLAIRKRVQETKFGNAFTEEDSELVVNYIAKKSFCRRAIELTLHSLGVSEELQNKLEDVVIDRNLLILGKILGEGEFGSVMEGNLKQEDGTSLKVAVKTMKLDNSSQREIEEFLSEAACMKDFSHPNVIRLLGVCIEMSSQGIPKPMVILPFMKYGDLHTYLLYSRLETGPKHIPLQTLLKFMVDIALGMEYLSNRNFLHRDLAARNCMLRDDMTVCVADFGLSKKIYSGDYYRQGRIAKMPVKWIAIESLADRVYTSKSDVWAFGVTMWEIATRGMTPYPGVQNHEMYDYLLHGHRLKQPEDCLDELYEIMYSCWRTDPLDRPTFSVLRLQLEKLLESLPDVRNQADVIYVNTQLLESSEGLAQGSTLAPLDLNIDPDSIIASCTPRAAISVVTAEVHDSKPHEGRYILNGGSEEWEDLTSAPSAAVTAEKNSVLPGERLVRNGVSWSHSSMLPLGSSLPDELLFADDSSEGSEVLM
row,Sequence,phosphorylation enrichment
1,VECHLYFTQPK [AKR1D1_Y199_P198L],0.556
2,AAPAAYDAADT [GAMT_Y27],0.461
3,VVCKNYAEAKD [ALB_Y343_D338V],0.457
4,KRTFEYEADKN [DENND2B_Y396],0.403
5,CRWKRYQRSHD [GDPD5_Y30],0.487
6,FNNFGYGSDGF [HNRNPH3_Y161_N163S_YF],0.455
7,WFKKFYDANCD [MAPRE2_Y158_Y162C],0.35
8,LIGWRYDDPEV [HSPA9_Y128_R126W],0.451
9,KITVIYDGACQ [VWDE_Y1035],0.437
10,CQNRFYDAKVR [FKBP6_Y188_R183C],0.477
11,ATVQNYLPKCI [A2M_Y817_L815Q],0.372
12,RHPEVYHHLGV [NVL_Y290],0.537
13,LQRCKNSHMEP [TEX45_Y434_Y434N],0.809
14,GKVFVYHGSSL [ITGA7_Y458_I457V],0.435
15,KQCSDYARELE [MYH3_Y1140_R1137C],0.557
16,LDLSYYTTSSS [EMD_Y182_P183T],0.731
17,RFLRGYHQDAF [HLA-A_Y137_R138H_YF],0.645

row,Sequence,phosphorylation enrichment
1,HDKEYYSVHNK [MET_Y1235_Y1230H],0.503
2,ENSLDYGSAWA [AR_Y395_P392S],0.462
3,FFTEEYVRDHP [DOCK2_Y1555],0.381
4,DCAAIYGSEPE [AKR1A1_Y50_N52S],0.474
5,VGAKTYKMSMA [CPS1_Y309_A304V],0.428
6,AKFLGYPPPEI [KDR_Y357_YF],0.412
7,TEHMAYCPIQC [SHC4_Y403_Q400H],0.416
8,NLSVHYDSSLK [ABCC8_Y1353_R1352H],0.339
9,GGEEFYVHYVG [KAT8_Y90_R86G],0.455
10,QKKEEYKMALF [F8_Y1990_R1985Q_YF],0.811
11,GKLIFHDLRGE [KARS1_Y145_Y145H],0.383
12,HDRGNYVRLNM [RECQL4_Y353],0.837
13,RHPLEYLRQFP [NARS2_Y138_YF],0.33
14,RCQDLYSARDL [SART1_Y249_R245C],4.7
15,IEEGTYGVAFR [CDK11B_Y449_V452A_YF],1.6
16,SEKVVYQRFTE [NCF1_Y41_R42Q],0.379

# Tested on: c-Abl (mouse)
# Assay: as above
row,Sequence,phosphorylation enrichment
1,VECHLYFTQPK [AKR1D1_Y199_P198L],1.02
2,AAPAAYDAADT [GAMT_Y27],0.782
3,VVCKNYAEAKD [ALB_Y343_D338V],0.785
4,KRTFEYEADKN [DENND2B_Y396],0.61
5,CRWKRYQRSHD [GDPD5_Y30],0.482
6,FNNFGYGSDGF [HNRNPH3_Y161_N163S_YF],0.727
7,WFKKFYDANCD [MAPRE2_Y158_Y162C],0.749
8,LIGWRYDDPEV [HSPA9_Y128_R126W],0.652
9,KITVIYDGACQ [VWDE_Y1035],0.837
10,CQNRFYDAKVR [FKBP6_Y188_R183C],0.684
11,ATVQNYLPKCI [A2M_Y817_L815Q],0.687
12,RHPEVYHHLGV [NVL_Y290],0.701
13,LQRCKNSHMEP [TEX45_Y434_Y434N],0.641
14,GKVFVYHGSSL [ITGA7_Y458_I457V],0.563
15,KQCSDYARELE [MYH3_Y1140_R1137C],0.929
16,LDLSYYTTSSS [EMD_Y182_P183T],0.982
17,RFLRGYHQDAF [HLA-A_Y137_R138H_YF],1.33

row,Sequence,phosphorylation enrichment
1,HDKEYYSVHNK [MET_Y1235_Y1230H],0.706
2,ENSLDYGSAWA [AR_Y395_P392S],0.638
3,FFTEEYVRDHP [DOCK2_Y1555],0.657
4,DCAAIYGSEPE [AKR1A1_Y50_N52S],0.791
5,VGAKTYKMSMA [CPS1_Y309_A304V],0.57
6,AKFLGYPPPEI [KDR_Y357_YF],0.627
7,TEHMAYCPIQC [SHC4_Y403_Q400H],0.661
8,NLSVHYDSSLK [ABCC8_Y1353_R1352H],0.548
9,GGEEFYVHYVG [KAT8_Y90_R86G],0.741
10,QKKEEYKMALF [F8_Y1990_R1985Q_YF],0.774
11,GKLIFHDLRGE [KARS1_Y145_Y145H],0.504
12,HDRGNYVRLNM [RECQL4_Y353],0.929
13,RHPLEYLRQFP [NARS2_Y138_YF],0.554
14,RCQDLYSARDL [SART1_Y249_R245C],1.41
15,IEEGTYGVAFR [CDK11B_Y449_V452A_YF],0.982
16,SEKVVYQRFTE [NCF1_Y41_R42Q],1.07
